Measured values taken from patent US20230181714A1.

B1: VEE-81 (antibody, V domains shown)
VH: QVQLVQSGAEVKKPGASVKVSCKASGYTFTTYYIHWVRQAPGRGLEWMGIINSSGYNTYYAQKFQGRVTMTRDTSTSTVDMELSSLRSEDTAVYYCATSITTRAFDLWGQGTLVTVSS
VL: EIVLTQSPGTLSLSPGERVTLSCRASQSVSSIYLAWYQQRPGQAPRLLIYGASSRATGIPDRFSGSGSGTDFTLTIRRLEPEDFAVYYCQQYGSSPYTFGQGTKLEIK
B2: VEE-52B (antibody, V domains shown)
VH: QVHLLQSGAEVKKPGASVKVSCKSSGHTFASHGISWVRQAPGQGLEWMGWISVYNGNTNYAQKFQGRVIMTTDTPTSTAYMELRSLRSDDTAVYYCAKDIPSASYTMDVWGEGTTVTV
VL: QSALTQPRSVSGSPGQSVTISCTGTSSDIGRYDYVSWYHQHPGKAPKLMIYDVTKRPSGVPDRFSGSKSGNTASLTISGLHADDEADYYCCSYAGSFYVFGTGTKVTVL

Columns and labels:
[1] = target: VEEV virus-like particles (VLPs) (Venezuelan equine encephalitis virus); experiment: ELISA, binding reactivity (FIG. 1)
Sequence of VEEV virus-like particles (VLPs) (Venezuelan equine encephalitis virus) (P05674 335-757, chain 1 of 2): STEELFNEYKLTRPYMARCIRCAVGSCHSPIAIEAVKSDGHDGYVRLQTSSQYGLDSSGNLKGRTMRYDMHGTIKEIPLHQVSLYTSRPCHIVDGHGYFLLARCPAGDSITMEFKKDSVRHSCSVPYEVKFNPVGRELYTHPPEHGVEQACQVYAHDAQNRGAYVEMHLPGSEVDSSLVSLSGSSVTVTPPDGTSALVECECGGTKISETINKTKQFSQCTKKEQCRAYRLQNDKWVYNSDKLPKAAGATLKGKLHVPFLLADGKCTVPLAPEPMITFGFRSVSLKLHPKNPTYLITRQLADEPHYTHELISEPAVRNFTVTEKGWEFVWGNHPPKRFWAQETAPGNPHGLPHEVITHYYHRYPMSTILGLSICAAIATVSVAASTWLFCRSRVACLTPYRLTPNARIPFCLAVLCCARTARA
Sequence of VEEV virus-like particles (VLPs) (Venezuelan equine encephalitis virus) (P05674 813-1254, chain 2 of 2): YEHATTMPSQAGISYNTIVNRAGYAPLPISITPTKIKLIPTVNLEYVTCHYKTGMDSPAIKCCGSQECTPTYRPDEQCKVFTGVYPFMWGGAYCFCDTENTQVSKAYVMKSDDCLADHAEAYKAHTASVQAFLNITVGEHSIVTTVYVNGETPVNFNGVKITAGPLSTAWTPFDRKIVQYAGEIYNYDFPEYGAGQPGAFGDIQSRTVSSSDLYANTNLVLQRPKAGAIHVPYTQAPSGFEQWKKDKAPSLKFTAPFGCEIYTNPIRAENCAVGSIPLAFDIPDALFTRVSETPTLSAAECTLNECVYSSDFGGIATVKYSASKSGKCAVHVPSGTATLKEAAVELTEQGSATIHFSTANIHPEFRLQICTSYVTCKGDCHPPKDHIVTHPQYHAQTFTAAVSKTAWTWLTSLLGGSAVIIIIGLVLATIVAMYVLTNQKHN

[2] = target: recombinant EEEV E1 glycoprotein (Eastern equine encephalitis virus); experiment: ELISA, binding reactivity (FIG. 1)

Row | Binder | EC50 [1] | EC50 [2]
1 | B1 | < 0.02 mg/L | < 0.02 mg/L
2 | B2 | < 0.02 mg/L | < 0.02 mg/L
